Measurements as given in paper PMC8345934, “Biochemical Studies of Mitochondrial Malate: Quinone Oxidoreductase from Toxoplasma gondii” (International Journal of Molecular Sciences, 2021).

T1: malate:quinone oxidoreductase (TgMQO) (Toxoplasma gondii, UniProt Q1KSF3)
T1 construct: gene mqo; lacking the mitochondrial targeting signal (Δ1-37 residues), His-tag purified
T1 sequence (Q1KSF3 38-549): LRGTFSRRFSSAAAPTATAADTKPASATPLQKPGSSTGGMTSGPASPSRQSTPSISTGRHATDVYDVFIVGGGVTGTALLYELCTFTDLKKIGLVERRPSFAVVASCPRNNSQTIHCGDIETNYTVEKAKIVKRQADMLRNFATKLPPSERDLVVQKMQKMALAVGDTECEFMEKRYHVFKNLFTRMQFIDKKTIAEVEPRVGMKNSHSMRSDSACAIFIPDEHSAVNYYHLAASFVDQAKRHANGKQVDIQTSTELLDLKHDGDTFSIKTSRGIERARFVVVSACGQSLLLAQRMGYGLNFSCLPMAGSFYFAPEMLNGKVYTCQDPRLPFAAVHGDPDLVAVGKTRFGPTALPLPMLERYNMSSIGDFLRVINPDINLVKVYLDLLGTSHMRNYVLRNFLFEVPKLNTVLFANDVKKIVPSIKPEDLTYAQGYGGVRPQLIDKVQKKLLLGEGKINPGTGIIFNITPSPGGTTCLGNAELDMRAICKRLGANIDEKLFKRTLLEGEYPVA

B1: malate:quinone oxidoreductase (TgMQO) (Toxoplasma gondii) (protein)
chain: T1 sequence (Q1KSF3 38-549)

Columns and labels:
[1] = molecular target: T1, malate:quinone oxidoreductase (TgMQO); test: spectrophotometric dUQ reduction at […] nm, purified recombinant enzyme; type: biochemical
[2] = substrate: COC1=C(OC)C(=O)C(C/C=C(\C)CC/C=C(\C)CC/C=C(\C)CCC=C(C)C)=C(C)C1=O; test: purified protein; conditions: FAD ubiquinone binding site
[3] = substrate: O=C(O)C[C@H](O)C(=O)O; test: purified protein; conditions: FAD malate binding site
[4] = substrate: COC1=C(OC)C(=O)C(C/C=C(\C)CC/C=C(\C)CC/C=C(\C)CC/C=C(\C)CC/C=C(\C)CCC=C(C)C)=C(C)C1=O; test: purified protein; conditions: FAD ubiquinone binding site
[5] = substrate: CCCCCCCCCCC1=C(C)C(=O)C(OC)=C(OC)C1=O; test: purified protein; conditions: FAD ubiquinone binding site
[6] = substrate: COC1=C(OC)C(=O)C(C)=CC1=O; test: purified protein; conditions: FAD ubiquinone binding site
[7] = substrate: COC1=C(OC)C(=O)C(C/C=C(\C)CCC=C(C)C)=C(C)C1=O; test: purified protein; conditions: FAD ubiquinone binding site
[8] = substrate: COC1=C(OC)C(=O)C(CC=C(C)C)=C(C)C1=O; test: purified protein; conditions: FAD ubiquinone binding site

Row | Molecule | IC50 [1] | Km [2] | Vmax [2] | Km [3] | Vmax [3] | Km [4] | Vmax [4] | Km [5] | Vmax [5] | Km [6] | Vmax [6] | Km [7] | Vmax [7] | Km [8] | Vmax [8]
1 | CC(C)=CCC/C(C)=C/CC/C(C)=C/Cc1c(O)c2ccccc2oc1=O [Ferulenol] | 822 ± 151 nM | – | – | – | – | – | – | – | – | – | – | – | – | – | –
2 | B1 | – | 7.7 ± 4.3 µM | 4.39 µmol/min/mg | 370 ± 140 µM | 6.3 µmol/min/mg | 8.0 ± 3.3 µM | 3.64 µmol/min/mg | 17 ± 4.7 µM | 12.1 µmol/min/mg | 225 ± 77 µM | 12.7 µmol/min/mg | 13.2 µM | 45.1 µmol/min/mg | 116 ± 16 µM | 44.2 µmol/min/mg
